Measured values: patent publication US20220169728A1 (AB THERAPEUTICS, published 2022)

T1: CD55 (UniProt P08174 35-353, limits assumed)
T1 construct: whole, on cells; also called CD55 on Rituximab resistant Raji cells (RRCL)
T1 sequence (looked up): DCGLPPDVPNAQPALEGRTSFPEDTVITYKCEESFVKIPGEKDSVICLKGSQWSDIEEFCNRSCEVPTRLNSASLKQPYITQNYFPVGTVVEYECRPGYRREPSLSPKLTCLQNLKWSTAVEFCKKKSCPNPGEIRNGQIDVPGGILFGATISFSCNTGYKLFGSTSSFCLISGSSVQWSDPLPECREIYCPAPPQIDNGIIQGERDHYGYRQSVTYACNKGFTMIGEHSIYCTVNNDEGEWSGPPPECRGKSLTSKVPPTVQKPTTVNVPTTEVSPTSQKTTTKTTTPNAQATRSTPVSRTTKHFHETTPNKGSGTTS

T2: CD20 (UniProt P11836 1-297, limits assumed)
T2 construct: whole, on cells; also called CD20 on Raji cells
T2 sequence (looked up): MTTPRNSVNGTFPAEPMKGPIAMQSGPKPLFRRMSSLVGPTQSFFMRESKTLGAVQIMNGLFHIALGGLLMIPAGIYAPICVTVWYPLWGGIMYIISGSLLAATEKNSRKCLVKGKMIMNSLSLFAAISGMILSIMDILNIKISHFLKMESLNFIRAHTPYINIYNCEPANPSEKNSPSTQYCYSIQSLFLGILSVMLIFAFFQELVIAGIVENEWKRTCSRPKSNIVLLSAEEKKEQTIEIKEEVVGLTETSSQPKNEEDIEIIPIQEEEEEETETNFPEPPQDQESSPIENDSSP


Columns and labels:
CD55 [1] = target: T1, CD55; test: binding at 5 µg/ml, the baseline itself; format not stated
PD-L1 = PD-L1 (UniProt Q9NZQ7 19-290, limits assumed); test: flow cytometry binding to MDA231 cells, Cy3 goat anti-human IgG detection
PD-L1, sequence (Q9NZQ7 19-290 limits assumed): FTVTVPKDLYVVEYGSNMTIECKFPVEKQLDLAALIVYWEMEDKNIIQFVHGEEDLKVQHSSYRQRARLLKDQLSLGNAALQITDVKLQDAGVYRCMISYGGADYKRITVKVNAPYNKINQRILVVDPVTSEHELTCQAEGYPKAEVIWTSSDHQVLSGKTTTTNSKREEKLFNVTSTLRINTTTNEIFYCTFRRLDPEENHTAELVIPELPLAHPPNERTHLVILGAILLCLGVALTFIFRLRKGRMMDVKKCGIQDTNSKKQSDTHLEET
Experimental: (§1) a) MDA231 cells are prepared in media at a concentration of 1×10⁶ cells/mL. [0411] b) Dilute antibody sample to an appropriate concentration. [0412] c) Transfer 50 μL, of cells into each well of 96 well V-bottom plate. [0413] d) Transfer 50 μL, of antibodies into wells of 96 well V-bottom plate. [0414] e) Incubate cell mixture for 60 min at room temperature. [0415] f) Spin cells down and wash twice with FACS buffer. [0416] g) Re-suspend cells in 100 μL, FACS buffer containing Cy3 conjugated goat anti-human (GAH) IgG (1:500) in each well. [0417] h) Incubate at room temperature for 30 min, and wash with FACS buffer×2.

CD55 [2] = target: T1, CD55; test: as above
Experimental: as §1

CD20 = target: T2, CD20; test: flow cytometry binding to CD20+ Raji cells, antibody titration, Cy3 goat anti-human IgG detection
CD3 = target: T3, CD3 (Homo sapiens (Human), UniProt P07766 23-207; P04234 22-171; P09693 23-182); test: flow cytometry binding to CD3+ Jurkat cells, antibody titration, Cy3 goat anti-human IgG detection
T3 construct: also called CD3 on Jurkat cells
T3 sequence (P07766 23-207 limits assumed, chain 1 of 3): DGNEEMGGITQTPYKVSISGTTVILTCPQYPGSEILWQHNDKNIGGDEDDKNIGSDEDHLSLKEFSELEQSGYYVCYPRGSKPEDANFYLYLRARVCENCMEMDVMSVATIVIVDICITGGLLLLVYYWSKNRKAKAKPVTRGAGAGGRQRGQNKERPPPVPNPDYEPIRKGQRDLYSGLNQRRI
T3 sequence (P04234 22-171 limits assumed, chain 2 of 3): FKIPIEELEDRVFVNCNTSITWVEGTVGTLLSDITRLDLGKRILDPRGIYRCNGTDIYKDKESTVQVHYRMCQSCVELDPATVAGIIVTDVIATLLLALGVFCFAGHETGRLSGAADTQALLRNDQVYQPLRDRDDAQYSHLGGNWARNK
T3 sequence (P09693 23-182 limits assumed, chain 3 of 3): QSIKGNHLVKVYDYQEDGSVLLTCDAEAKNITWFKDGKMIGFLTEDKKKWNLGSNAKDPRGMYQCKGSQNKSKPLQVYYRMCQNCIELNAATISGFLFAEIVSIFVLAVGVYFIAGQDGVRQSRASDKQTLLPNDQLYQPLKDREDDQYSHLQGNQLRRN

| EC50 (read off the curve) (CD20) | binding result (CD3) | Binder | other results |
| --- | --- | --- | --- |
|  |  | parental anti-CD55 antibody (CD55 wt), monoclonal antibody having CD55VH (SEQ ID NO: 14 without any mutations) and the VL (SEQ ID NO: 15) (antibody, V domains shown, Variable domains derived from a CD55 scFv; also called CD55VH + VL; CD55 parental Ab) VH: QVKLQESGGGLVQPGGSLKLSCAASGFTFSGYGMSWIRQTPDKRLEWVATINSGGSYTYYSDSVKGRFTISRDNVKNTLYLQMSSLKSEDTAMYYCARRNGTLYYYLMDYWGRGTLVTVSS VL: QSVLTQPPSASGSPGQSVTISCTGTSSDVGGYNYVSWYQQHPGKAPKFMIYDVSKRPSGVSNRFSGSKSGNTASLTISGVQAEDEADYYCSSYTSASTVIFGGGTKLTVL | Function remaining percentage (5 µg/ml) (CD55 [1]): 100% |
|  |  | Anti-PD-L1 homodimer IgG (PD-L1 v1) containing the designed VH sequence (SEQ ID NO: 4) and the common VL sequence (SEQ ID NO: 6) (antibody, V domains shown, Homodimer IgG; also called PDL1 homodimer version 1) VH: EVQLLESGGGLVEPGGSLRLSCAASGFTFSSYIMMWVRQAPGKGLEWVSSIYPSGGITFYADTVKGRFTISRDNSKNTLYLQMNSLRAEDTAVYYCARIKLGTVTTVDYWGEGTLVTVSS VL: QSALTQPASVSGSPGQSITISCTGTSSDVGGYNYVSWYQQHPGKAPKLMIYDVSKRPSGVSNRFSGSKSGNTASLTISGLQAEDEADYYCSSYTSASTRIFGGGTKVTVLR | binding result (PD-L1): binds |
|  |  | Anti-CD55 homodimer IgG (CD55 v1) containing the designed VH sequence (SEQ ID NO: 5) and the common VL sequence (SEQ ID NO: 6) (antibody, V domains shown, Homodimer IgG; also called CD55 homodimer version 1) VH: QVKLQESGGGLVKPGGSLKLSCAASGFTFSGYGMSWIRQTPGKRLEWVATINSGGSYTYYSDSVKGRFTISRDNVKNTLYLQMSSLKSEDTAMYYCARRNGTLYYYLMDYWGRGTLVTVSS VL: QSALTQPASVSGSPGQSITISCTGTSSDVGGYNYVSWYQQHPGKAPKLMIYDVSKRPSGVSNRFSGSKSGNTASLTISGLQAEDEADYYCSSYTSASTRIFGGGTKVTVLR | binding result (CD55 [2]): binds |
| ~0.2 µg/mL | no binding (tested: 10 µg/ml) | parental anti-CD20 IgG (Parental CD20) (antibody, V domains shown, IgG; also called Rituximab; CD20 parental Ab) VH: QVQLQQPGAELVKPGASVKMSCKASGYTFTSYNMHWVKQTPGRGLEWIGAIYPGNGDTSYNQKFKGKATLTADKSSSTAYMQLSSLTSEDSAVYYCARSTYYGGDWYFNVWGAGTTVTVSA VL: QIVLSQSPAILSASPGEKVTMTCRASSSVSYIHWFQQKPGSSPKPWIYATSNLASGVPVRFSGSGSGTSYSLTISRVEAEDAATYYCQQWTSNPPTFGGGTKLEIKR |  |
| ~0.4 µg/mL | no binding (tested: 10 µg/ml) | CD20 homodimer IgG containing the designed VH sequence (SEQ ID NO: 1) and the common VL sequence (SEQ ID NO: 3) (antibody, V domains shown, IgG homodimer with two VHa and two common VL; also called redesigned Rituximab; antibody A) VH: QVQLQQPGAELVKPGASVKMSCKASGYTFTSYNMHWVKQTPGRGLEWIGAIYPGNGDTSYNQKFKGKATLTADKSSSTAYMQLSSLRSEDSAVYYCARSTYYGGDWYFNVWGAGTTVTVSA VL: QIVLSQSPAILSASPGEKVTMTCRASSSVSYIHWFQQKPGSSPKPWIYATSNLASGVPVRFSGSGSGTSYSLTISRVEAEDAATYYCQQWTSNPPTFGGGTKLEIKR |  |
|  |  | CD3 homodimer IgG containing the designed VH sequence (SEQ ID NO: 2) and the common VL sequence (SEQ ID NO: 3) (antibody, V domains shown, IgG homodimer with two VHb and two common VL; also called redesigned 12F6; antibody B) VH: EVQLQESGAELARPGASVKMSCKASGYTFTSYTMHWVKQRPGEGLEWIGYINPSSGYTKYNQKFKDKATLTADKSSSTAYMELSSLTSEDSAVYYCARWQDYDVYFDYWGEGTTLTVSS VL: QIVLSQSPAILSASPGEKVTMTCRASSSVSYIHWFQQKPGSSPKPWIYATSNLASGVPVRFSGSGSGTSYSLTISRVEAEDAATYYCQQWTSNPPTFGGGTKLEIKR | binding result (CD20): no binding (tested: 10 µg/ml) |
